Reference: patent US20240109973A1 (Memorial Sloan Kettering, published 2024)
Values belong to the binder of their own block, whether it stands above or below them.

Tests used:
[1] = target: T1, human CD40 on cells (human, UniProt P25942 21-277); experiment: cell-based or functional assay
[2] = target: T1, human CD40 on cells; experiment: cell-based or functional assay; remark: listed apart in the source
[3] = target: T2, recombinant human CD40 (residues 21-192) fused to a 6×His-tag at the carboxy-terminus (human, UniProt P25942 21-192); experiment: BLI, soluble monomeric human CD40-His
T2 construct: range 21-192; also called Human CD40-His; soluble, monomeric human CD40-His
T2 sequence (P25942 other isoform, or with tags, fused parts or gaps limits assumed): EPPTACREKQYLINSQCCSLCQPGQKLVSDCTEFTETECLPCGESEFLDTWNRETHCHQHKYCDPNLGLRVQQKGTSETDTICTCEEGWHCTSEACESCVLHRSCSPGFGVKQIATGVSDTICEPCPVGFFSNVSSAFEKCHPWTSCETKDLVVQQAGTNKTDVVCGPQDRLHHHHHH
Protocol: Dissociation constants (KD), on-rates (kon) and off-rates (koff) for the 10F12 chimeric mAb were determined by BLI using soluble, monomeric human CD40-His (Table 1).

[4] = target: T2, recombinant human CD40 (residues …); experiment: BLI, Octet Red96e
Protocol: (§1) Antibody TDI-Y-003 produced in stable CHO pools was tested in a series of binding and functional assays in vitro as well as an in vivo study in a disease-relevant animal model. Affinity to human CD40 was measured by BLI using an Octet Red96e. […] The slower off-rate seen for this interaction is likely a result of the avidity between the bivalent TDI-Y-003 IgG and the dimeric CD40-Fc.

[5] = target: T1, human CD40 on cells; experiment: flow cytometry, Raji cells (endogenous CD40)
Protocol: (§2) To assess the binding of TDI-Y-003 to cell surface-bound CD40, HEK293 overexpressing CD40 as well as Raji cells (B-lymphocytes) and primary human dendritic cells, which express endogenous CD40, were used. TDI-Y-003 bound HEK293-CD40 and Raji cells with EC₅₀ values in the sub-nanomolar range at 0.44 and 0.77 nM, respectively (Table 5).

[6] = target: T3, human CD40-Fc (human, UniProt P25942 21-192); experiment: BLI, Octet Red96e; avidity between bivalent IgG and dimeric CD40-Fc
T3 construct: range 21-192; also called dimeric CD40-Fc; not shown: human Fc fragment fused to the carboxy-terminus
T3 sequence (P25942 21-192): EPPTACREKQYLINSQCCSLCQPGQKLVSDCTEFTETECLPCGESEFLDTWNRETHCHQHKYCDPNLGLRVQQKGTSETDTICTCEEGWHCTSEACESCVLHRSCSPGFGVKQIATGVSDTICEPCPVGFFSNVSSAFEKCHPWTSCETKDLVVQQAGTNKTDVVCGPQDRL
Protocol: as §1

[7] = target: T4, Cyno CD40-His (cynomolgus monkey, UniProt G7PG38 21-192); experiment: BLI, Octet Red96e
T4 construct: also called monomeric cynomolgus monkey CD40; not shown: His tag
Protocol: (§3) Affinity to cynomolgus monkey and mouse CD40 was measured by BLI using an Octet Red96e.

[8] = target: T5, Mouse CD40-His (mouse, UniProt P27512 24-192, limits assumed); experiment: BLI, Octet Red96e
T5 construct: also called monomeric mouse CD40; not shown: His tag
T5 sequence (looked up): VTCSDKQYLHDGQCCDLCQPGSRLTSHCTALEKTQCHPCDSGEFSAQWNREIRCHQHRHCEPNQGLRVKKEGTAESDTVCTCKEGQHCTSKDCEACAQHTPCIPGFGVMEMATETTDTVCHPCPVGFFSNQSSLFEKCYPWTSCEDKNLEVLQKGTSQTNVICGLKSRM
Protocol: as §3

[9] = target: T1, human CD40 on cells; experiment: cell-based or functional assay; remark: listed apart in the source
[10] = target: T1, human CD40 on cells; experiment: flow cytometry, HEK293 cells overexpressing CD40
Protocol: as §2

[11] = target: T1, human CD40 on cells; experiment: flow cytometry, primary human dendritic cells (endogenous CD40)
Protocol: as §2

[12] = target: T1, human CD40 on cells; experiment: flow cytometry competition on HEK293 cells stably expressing CD40; competitor HA-tagged CD40 ligand detected with PE anti-HA
Protocol: FIG. 4. Competitive binding of TDI-Y-003 with CD40 ligand to CD40 stably expressed on HEK293 cells. HEK293 cells stably expressing CD40 were co-incubated with either TDI-Y-003 or isotype control antibody and HA-tagged CD40 ligand. CD40 ligand binding was assessed by flow cytometry with a PE labeled anti-HA antibody. Results are normalized to secondary antibody only controls (MFI ratio).
Competitive binding of TDI-Y-003 with CD40L for binding to CD40 was assessed using HEK293 cells stably expressing CD40. Cells were co-incubated with HA tagged CD40 ligand and TDI-Y-003 or isotype control at the indicated concentrations and analyzed for CD40 ligand binding by flow cytometry (FIG. 4).

T1 sequence (P25942 21-277): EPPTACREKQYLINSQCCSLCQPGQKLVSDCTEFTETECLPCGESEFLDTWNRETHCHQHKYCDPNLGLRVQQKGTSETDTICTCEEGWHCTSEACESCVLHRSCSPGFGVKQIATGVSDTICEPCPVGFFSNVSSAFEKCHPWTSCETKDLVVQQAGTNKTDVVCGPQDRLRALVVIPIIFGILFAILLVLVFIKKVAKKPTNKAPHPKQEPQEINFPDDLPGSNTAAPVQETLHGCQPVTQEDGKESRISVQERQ

EC50 for agonist activity (HEK293-CD40 NF-κB-Luciferase reporter system) [1]: 3.58 nM
Max Stim [% CD40L] (HEK293-CD40 NF-κB-Luciferase reporter system) [1]: 100 % CD40L
EC50 in agonist assay (HEK293 NF-kB-luciferase reporter line stably expressing CD40) [2]: 9.62 nM
B1: human CD40L (ligand, UniProt P29965 113-261, looked up)
chain: MQKGDQNPQIAAHVISEASSKTTSVLQWAEKGYYTMSNNLVTLENGKQLTVKRQGLYYIYAQVTFCSNREASSQAPFIASLCLKSPGRFERILLRAANTHSSAKPCGQQSIHLGGVFELQPGASVFVNVTDPSQVSHGTGFTSFGLLKL

EC50 in agonist assay (HEK293 NF-kB-luciferase reporter line stably expressing CD40) [2]: 2.14 nM
B2: TDI-Y-003 F(ab′)2 fragment generated by pepsin cleavage (other)
heavy: QVQLQESGPGLVKPSETLSLTCTVSGFSLTTYGLHWIRQPPGKGLEWIGVIWRGGNTDYNPSLKSRVTISKDTSKNQVSLKLSSVTAADTAVYYCAKNSYYGQGGHAMDYWGQGTLVTVSSASTKGPSVFPLAPCSRSTSESTAALGCLVKDYFPEPVTVSWNSGALTSGVHTFPAVLQSSGLYSLSSVVTVPSSNFGTQTYTCNVDHKPSNTKVDKTVERKCCVECPPCPAPPVAGPSVFLFPPKPKDTLMISRTPEVTCVVVDVSHEDPEVQFNWYVDGVEVHNAKTKPREEQFNSTFRVVSVLTVVHQDWLNGKEYKCKVSNKGLPAPIEKTISKTKGQPREPQVYTLPPSREEMTKNQVSLTCLVKGFYPSDIAVEWESNGQPENNYKTTPPMLDSDGSFFLYSKLTVDKSRWQQGNVFSCSVMHEALHNHYTQKSLSLSPG
light: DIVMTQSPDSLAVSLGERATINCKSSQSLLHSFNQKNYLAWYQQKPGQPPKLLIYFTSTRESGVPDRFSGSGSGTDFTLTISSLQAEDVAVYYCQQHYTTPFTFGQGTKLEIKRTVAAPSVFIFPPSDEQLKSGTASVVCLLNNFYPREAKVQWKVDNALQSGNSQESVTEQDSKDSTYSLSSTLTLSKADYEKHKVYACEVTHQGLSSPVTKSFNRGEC

Kd [3]: 27.1 nM
koff [3]: 0.0071 s⁻¹
kon [3]: 262000 M⁻¹ s⁻¹
EC50 for agonist activity (HEK293-CD40 NF-κB-Luciferase reporter system) [1]: 0.333 nM
Max Stim [% CD40L] (HEK293-CD40 NF-κB-Luciferase reporter system) [1]: 63.4 % CD40L
B3: 10F12 chimeric mAb, human IgG1 (antibody, V domains shown)
VH: QVQLKQSGPGLVQPSQSLSITCTVSGFSLTTYGLHWVRQSPGKGLEWLGVIWRGGNTDYNAAFMSRLSITKDNSKSQVFFKMNSLQADDTAIYYCAKNSYYGNGGHAMDYWGQGTSVTVSS
VL: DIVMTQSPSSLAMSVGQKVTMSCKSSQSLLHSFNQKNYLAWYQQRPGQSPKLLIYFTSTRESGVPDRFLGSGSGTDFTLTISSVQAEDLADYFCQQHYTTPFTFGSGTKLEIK
notes: Mouse variable regions fused to human constant regions of the IgG1 subclass; Expressed in HEK293 cells; also called 10-F12 (Human IgG1)

Kd [3]: 26.5 nM
koff [3]: 0.00911 s⁻¹
kon [3]: 344000 M⁻¹ s⁻¹
EC50 for agonist activity (HEK293-CD40 NF-κB-Luciferase reporter system) [1]: 0.01 nM
Max Stim [% CD40L] (HEK293-CD40 NF-κB-Luciferase reporter system) [1]: 96.5 % CD40L
B4: 10F12 chimeric mAb, human IgG2 (antibody, V domains shown)
VH: QVQLKQSGPGLVQPSQSLSITCTVSGFSLTTYGLHWVRQSPGKGLEWLGVIWRGGNTDYNAAFMSRLSITKDNSKSQVFFKMNSLQADDTAIYYCAKNSYYGNGGHAMDYWGQGTSVTVSS
VL: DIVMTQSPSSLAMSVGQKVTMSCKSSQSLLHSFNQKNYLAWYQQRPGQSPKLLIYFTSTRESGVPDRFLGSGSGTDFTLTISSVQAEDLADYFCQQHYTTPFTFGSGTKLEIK
notes: Mouse variable regions fused to human constant regions of the IgG2 subclass; Expressed in HEK293 cells; also called 10-F12 (Human IgG2); 10-F12 hIgG2

Kd [4]: 40 nM
koff [4]: 0.048 s⁻¹
kon [4]: 1.2e+06 M⁻¹ s⁻¹
EC50 [5]: 0.77 nM
Kd [6]: 1.2 nM
koff [6]: 0.0013 s⁻¹
kon [6]: 1e+06 M⁻¹ s⁻¹
Kd [7]: 48 nM
koff [7]: 0.0471 s⁻¹
kon [7]: 977000 M⁻¹ s⁻¹
binding result [8]: no binding (tested: 1.7 µM)
EC50 in DC activation assay, marker CD80 [9]: 2 nM
EC50 in DC activation assay, marker CD86 [9]: 5.5 nM
EC50 in DC activation assay, marker HLA-ABC [9]: 2.5 nM
EC50 in DC activation assay, marker HLA-DR [9]: 1.7 nM
EC50 [10]: 0.44 nM
EC50 in agonist assay (HEK293 NF-kB-luciferase reporter line stably expressing CD40) [2]: 0.64 nM
EC50 [11]: 3.85 nM
IC50 [12]: 1.07 nM
B5: TDI-Y-003 (antibody, human IgG2, kappa, V domains shown)
VH: QVQLQESGPGLVKPSETLSLTCTVSGFSLTTYGLHWIRQPPGKGLEWIGVIWRGGNTDYNPSLKSRVTISKDTSKNQVSLKLSSVTAADTAVYYCAKNSYYGQGGHAMDYWGQGTLVTVSS
VL: DIVMTQSPDSLAVSLGERATINCKSSQSLLHSFNQKNYLAWYQQKPGQPPKLLIYFTSTRESGVPDRFSGSGSGTDFTLTISSLQAEDVAVYYCQQHYTTPFTFGQGTKLEIKR
notes: also called Hu10F12 (N103Q); hu10F12 (N103Q)

EC50 in agonist assay (HEK293 NF-kB-luciferase reporter line stably expressing CD40) [2]: 112 nM
B6: TDI-Y-003 Fab fragment generated by papain cleavage (Fab, V domains shown)
VH: QVQLQESGPGLVKPSETLSLTCTVSGFSLTTYGLHWIRQPPGKGLEWIGVIWRGGNTDYNPSLKSRVTISKDTSKNQVSLKLSSVTAADTAVYYCAKNSYYGQGGHAMDYWGQGTLVTVSS
VL: DIVMTQSPDSLAVSLGERATINCKSSQSLLHSFNQKNYLAWYQQKPGQPPKLLIYFTSTRESGVPDRFSGSGSGTDFTLTISSLQAEDVAVYYCQQHYTTPFTFGQGTKLEIKR
